{"source": "patent US9587002B2", "about": "“Sequence of nucleotides and peptides GSE 24.2 of dyskerin, which can induce telomerase activity, method for obtaining same, therapeutic compositions and applications thereof” (CONSEJO SUPERIOR DE INVESTIGACIONES CIENTIFICAS, priority 2005, dated 2017)", "molecules": {"B1": {"name": "GSE 24.2: 165-pb cDNA fragment (nucleotides 268 to 433) of human dyskerin, SEQ ID NO1, encoding peptide SEQ ID NO2, expressed from pLNCX plasmid (nucleic acid, listed as Homo sapiens)", "DNA": "GGTTTCATTAATCTTGACAAGCCCTCTAACCCCTCTTCCCATGAGGTGGTAGCCTGGATTCGACGGATACTTCGGGTGGAGAAGACAGGGCACAGTGGTACTCTGGATCCCAAGGTGACTGGTTGTTTAATCGTGTGCATAGAACGAGCCACTCGCTTGGTGAAG", "modifications": "expressed from pLNCX plasmid; CDS (1)..(165) Sequence GSE 24.2"}}, "key": {"[1]": {"tested_on": "c-MYC promoter", "test": "c-MYC-luc reporter (px3.2) luciferase assay in 293T cells", "type": "cell-based, human", "experimental": "FIG. 12.—The promoter activity of c-MYC is induced by the GSE 24.2 peptide. A) Schematic representation of the c-MYC promoter, indicating the different constructs used in the experiments. B) 293T cells were co-transfected with the specified plasmids (10 μg/DNA per million cells) and with the px3.2 c-MYC-luc reporter (1 μg per million cells). C) The specified cell lines were transfected with the px3.2 c-MYC-luc reporter (1 μg per million cells). D) The specified cell lines were transfected with the different constructs of the c-MYC-luc reporter (1 μg per million cells). After 24 hours of transfection, the luciferase activity was analysed as specified above. CMV-Renilla (0.1 μg/ml per million cells) was used as a control for the transfection efficiency. The data represent the mean of two experiments performed in quadruplicate.\nFIG. 13.—The activity of the c-MYC promoter induced by the GSE 24.2 peptide is dependent on the NHE III element. A) Schematic representation of the mutations generated in the NHE III element, px3.2 (SEQ ID NO: 21), px3.2 G12A (SEQ ID NO: 22), px3.2 G17A (SEQ ID NO: 23), and px3.2 G26T/G27T (SEQ ID NO: 24). B) The 293T cells were co-transfected with different constructs (10 μg/DNA per million cells) and with the different mutants of the px3.2 reporter plasmid (1 μg per million cells). C) The cell lines specified in the figure were transfected with the different mutants of the px3.2 reporter (1 μg per million cells). After 24 h of transfection, the luciferase activity was analysed as specified above. CMV-Renilla (0.1 μg/ml per million cells) was used as a control for the transfection efficiency. The data represent the mean of two experiments performed in quadruplicate.\nThe transcription of the c-myc gene is controlled by two different promoters and it seems to be repressed by a domain hypersensitive to DNase located between the P0 and P1 promoters (NHEIII). Thus, four different constructs were used that contained 3.2 kb of the transcription initiation point of c-myc bound to the luciferase gene (FIG. 12a).\nThis transcription factor, c-myc, should therefore activate the transcription of hTERT. Thus, three mutants deleted in the c-myc promoter were used to define the necessary region for the GSE 24.2 peptide to perform its inducing activity.\nSince the NHEIII region has been described as an inhibitor of the transcription of c-myc, several mutants of the NHEIII region were constructed by Guanine modification of the purine-rich region. The 27 Guanines present in the NHEIII region are involved in maintaining the secondary structure of the G-quadruplexes of the purine-rich region (Pu27). The following were mutated: G12A, located on the second guanine of the second quartet; G17A, on the second triplet of Guanines; and, finally, two consecutive Guanines (G26A/G27A) at the end of the purine-rich region (FIG. 13a). These promoter construct were transfected in cells that express, either the empty vector, or the vectors containing the DKC protein or the GSE 24.2 peptide.\nDirected mutagenesis. The specific mutations of guanine in the NHEIII region of the c-myc gene promoter, px3.2, were performed using the Quickchange X-L directed mutagenesis kit (Strategene) in accordance with the manufacturer's instructions."}, "[2]": {"tested_on": "293T cells", "test": "Cell viability of 293T cell lines treated with Inhibitor of Telomerase I (crystal violet)", "type": "cell-based, human", "details": "24.2 vs pLNCX 293T cells, inhibitor 0-20 μM, 72 hours", "experimental": "FIG. 6.—Cell viability and telomerase activity of the 293T cell lines: pLNCX and 24.2 treated with the Inhibitor of telomerase I. A) Cell viability. After seeding the 293T cells: pLNCX and 24.2 in 24-well plates, they were incubated with concentrations between 0-20 μM of the Inhibitor of Telomerase I. The cell viability was measured by means of the crystal violet technique after 72 hours of exposure to the drug. The data represent the mean of two experiments performed in quadruplicate. B) Telomerase activity at different doses of the Inhibitor of Telomerase I. Telomerase activity of the 293T cells: 24.2 and pLNCX in the presence of different concentrations of the inhibitor of telomerase I (5-7 μM) for 3 days. The cells were seeded in 60-mm plates and subsequently treated at the specified concentrations and times.\nThe effect of GSE 24.2 in response to the inhibitor of telomerase I was studied. To this end, a viability curve was performed wherein the pLNCX and 24.2 cell lines were treated with increasing concentrations of the inhibitor of telomerase I (0-20 μM) for 72 hours. […]\nGrowth curves. […] The number of cells was determined by estimating the absorbance at 595 nm. […]"}}, "data": [{"molecule": "B1", "values": [{"measurement": "c-myc promoter (px3.2myc) activity, transient co-transfection", "setting": "[1]; 293T cells, GSE 24.2 plasmid vs pLNCX jointly with px3.2myc reporter", "value": "A similar result was obtained"}, {"measurement": "transcription from deletion mutants of the c-myc promoter", "setting": "[1]; GSE 24.2 cells vs control cells, three deleted mutants", "value": "only those contained in the distal region of promoters P1 and P0, which include the NHEIII domain, were capable of maintaining the transcription"}, {"measurement": "activation of WT px3.2 myc promoter", "setting": "[1]; cells expressing empty vector, DKC or GSE 24.2", "value": "only the WT px3,2 myc promoter was capable of being activated"}, {"measurement": "activation of Pu27 (NHEIII) mutant c-myc promoters", "setting": "[1]; mutants G12A, G17A, G26A/G27A", "value": "at very low levels"}, {"measurement": "c-myc promoter (px3.2myc) activity, GSE 24.2 cells vs control cells", "setting": "[1]; stable cell lines transfected with px3.2myc", "value": "three-fold increase in activity"}, {"measurement": "cell viability in response to Inhibitor of Telomerase I", "setting": "[2]", "value": "more resistant to the inhibitor of telomerase I"}, {"measurement": "cell viability in response to Inhibitor of Telomerase I", "setting": "[2]; listed as 24.2", "value": "increases viability"}]}]}
